The target in this assay is T1, CHMP3 (human, UniProt Q9Y3E7 1-222).
T1 sequence (looked up): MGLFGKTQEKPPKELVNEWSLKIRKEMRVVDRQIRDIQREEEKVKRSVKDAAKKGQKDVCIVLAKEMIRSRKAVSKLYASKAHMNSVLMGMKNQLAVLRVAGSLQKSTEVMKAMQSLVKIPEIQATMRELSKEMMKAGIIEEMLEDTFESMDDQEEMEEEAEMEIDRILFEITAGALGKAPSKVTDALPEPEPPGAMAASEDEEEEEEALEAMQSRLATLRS
As to the kind of experiment: negative-stain electron microscopy.

B1: CHMP2A (natural protein, human, UniProt O43633 1-222, looked up)
chain: MDLLFGRRKTPEELLRQNQRALNRAMRELDRERQKLETQEKKIIADIKKMAKQGQMDAVRIMAKDLVRTRRYVRKFVLMRANIQAVSLKIQTLKSNNSMAQAMKGVTKAMGTMNRQLKLPQIQKIMMEFERQAEIMDMKEEMMNDAIDDAMGDEEDEEESDAVVSQVLDELGLSLTDELSNLPSTGGSLSVAAGGKKAEAAASALADADADLEERLKNLRRD
With B1, the binding result was “binds”.
